Patent publication US5840683A, “Peptides inhibiting the oncogenic action of p21 ras” (Innapharma, Inc., dated 1998)

Tested on: oncogenic ras-p-21
Test: not given
Conditions: background statement; cited from earlier work

| Molecule | inhibition of oncogenic ras-p-21 |
| --- | --- |
| N[C@@H](Cc1ccc(O)cn1)C(=O)O [Azatyrosine] | strongly inhibits |

Target: T1, human oncogenic ras p21 (human)
T1 chain: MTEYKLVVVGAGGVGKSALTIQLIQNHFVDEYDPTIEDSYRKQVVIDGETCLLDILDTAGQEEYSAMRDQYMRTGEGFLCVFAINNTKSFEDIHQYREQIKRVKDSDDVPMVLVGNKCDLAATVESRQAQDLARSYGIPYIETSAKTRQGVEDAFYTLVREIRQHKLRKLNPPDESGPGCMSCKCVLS
Test: cell-based or functional assay
Conditions: not given

| Molecule | Present Inhibition of ras-Induced Maturation [%] |
| --- | --- |
| YREQIKRVKDSDDVP [peptide of SEQ ID NO:7, Tyr-Arg-Glu-Gln-Ile-Lys-Arg-Val-Lys-Asp-Ser-Asp-Asp-Val-Pro] | 56 |
| CDLAART [peptide of SEQ ID NO:9, Cys-Asp-Leu-Ala-Ala-Arg-Thr] | 65 |
| DLAA [peptide of SEQ ID NO:4, Asp-Leu-Ala-Ala] | 22 |
| IKRVKD [peptide of SEQ ID NO:1, Ile-Lys-Arg-Val-Lys-Asp] | 76 |
| KCDLA [peptide of SEQ ID NO:2, Lys-Cys-Asp-Leu-Ala] | 38 |
| TIEDSYRKQVVID [peptide of SEQ ID NO:6, Thr-Ile-Glu-Asp-Ser-Tyr-Arg-Lys-Gln-Val-Val-Ile-Asp] | 28 |
| VVI [Val-Val-Ile] | 34 |
| KRV [Lys-Arg-Val] | 22 |
| GNKCDLAARTVE [peptide of SEQ ID NO:8, Gly-Asn-Lys-Cys-Asp-Leu-Ala-Ala-Arg-Thr-Val-Glu] | 92 |
